Test results: US20150344570A1 (published 2015)

T1: FcγRIIa R (FcγRIIa, allotype with Arg at position 131), extracellular domain with C-terminal His tag (human, UniProt P12318 34-217)
T1 construct: extracellular domain; also called FcγRIIa R type; 2aR
T1 sequence (looked up): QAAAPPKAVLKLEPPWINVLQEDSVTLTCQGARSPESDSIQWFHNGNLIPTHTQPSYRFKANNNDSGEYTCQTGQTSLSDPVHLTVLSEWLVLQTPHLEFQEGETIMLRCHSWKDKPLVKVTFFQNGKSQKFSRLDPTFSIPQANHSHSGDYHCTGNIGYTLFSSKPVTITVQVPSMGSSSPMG


Each binder was assayed against T1, FcγRIIa R (FcγRIIa, allotype with Arg …) (assay: SPR (Biacore), antibody captured on antigen peptide chip, FcγR as analyte; relative binding).

| He/Con_2aR | Binder |
| --- | --- |
| 109 % of GpH7-A5/GpH7-B3/GpL16-k0 (=100) | GpH7-A5/GpH7-B3 variant T335_07I/GpL16-k0 (antibody, human IgG1, kappa, also called He Ab) heavy 1: not shown heavy 2: not shown light: DIVMTQSPLSLPVTPGEPASISCQASESLVHSNRNTYLHWYLQKPGQSPQLLIYKVSNRFSGVPDRFSGSGSGTDFTLKISRVEAEDVGVYYCSQNTHVPPTFGQGTKVEIERTVAAPSVFIFPPSDEQLKSGTASVVCLLNNFYPREAKVQWKVDNALQSGNSQESVTEQDSKDSTYSLSSTLTLSKADYEKHKVYACEVTHQGLSSPVTKSFNRGEC |
| 109 % of GpH7-A5/GpH7-B3/GpL16-k0 (=100) | GpH7-A5/GpH7-B3 variant S337_16H/GpL16-k0 (antibody, human IgG1, kappa, also called He Ab) heavy 1: not shown heavy 2: not shown light: DIVMTQSPLSLPVTPGEPASISCQASESLVHSNRNTYLHWYLQKPGQSPQLLIYKVSNRFSGVPDRFSGSGSGTDFTLKISRVEAEDVGVYYCSQNTHVPPTFGQGTKVEIERTVAAPSVFIFPPSDEQLKSGTASVVCLLNNFYPREAKVQWKVDNALQSGNSQESVTEQDSKDSTYSLSSTLTLSKADYEKHKVYACEVTHQGLSSPVTKSFNRGEC |
| 111 % of GpH7-A5/GpH7-B3/GpL16-k0 (=100) | GpH7-A5/GpH7-B3 variant T335_15Y/GpL16-k0 (antibody, human IgG1, kappa, also called He Ab) heavy 1: not shown heavy 2: not shown light: DIVMTQSPLSLPVTPGEPASISCQASESLVHSNRNTYLHWYLQKPGQSPQLLIYKVSNRFSGVPDRFSGSGSGTDFTLKISRVEAEDVGVYYCSQNTHVPPTFGQGTKVEIERTVAAPSVFIFPPSDEQLKSGTASVVCLLNNFYPREAKVQWKVDNALQSGNSQESVTEQDSKDSTYSLSSTLTLSKADYEKHKVYACEVTHQGLSSPVTKSFNRGEC |
| 106 % of GpH7-A5/GpH7-B3/GpL16-k0 (=100) | GpH7-A5/GpH7-B3 variant T335_18N/GpL16-k0 (antibody, human IgG1, kappa, also called He Ab) heavy 1: not shown heavy 2: not shown light: DIVMTQSPLSLPVTPGEPASISCQASESLVHSNRNTYLHWYLQKPGQSPQLLIYKVSNRFSGVPDRFSGSGSGTDFTLKISRVEAEDVGVYYCSQNTHVPPTFGQGTKVEIERTVAAPSVFIFPPSDEQLKSGTASVVCLLNNFYPREAKVQWKVDNALQSGNSQESVTEQDSKDSTYSLSSTLTLSKADYEKHKVYACEVTHQGLSSPVTKSFNRGEC |
| 104 % of GpH7-A5/GpH7-B3/GpL16-k0 (=100) | GpH7-A5/GpH7-B3 variant T335_01G/GpL16-k0 (antibody, human IgG1, kappa, also called He Ab) heavy 1: not shown heavy 2: not shown light: DIVMTQSPLSLPVTPGEPASISCQASESLVHSNRNTYLHWYLQKPGQSPQLLIYKVSNRFSGVPDRFSGSGSGTDFTLKISRVEAEDVGVYYCSQNTHVPPTFGQGTKVEIERTVAAPSVFIFPPSDEQLKSGTASVVCLLNNFYPREAKVQWKVDNALQSGNSQESVTEQDSKDSTYSLSSTLTLSKADYEKHKVYACEVTHQGLSSPVTKSFNRGEC |
| 109 % of GpH7-A5/GpH7-B3/GpL16-k0 (=100) | GpH7-A5/GpH7-B3 variant T335_20W/GpL16-k0 (antibody, human IgG1, kappa, also called He Ab) heavy 1: not shown heavy 2: not shown light: DIVMTQSPLSLPVTPGEPASISCQASESLVHSNRNTYLHWYLQKPGQSPQLLIYKVSNRFSGVPDRFSGSGSGTDFTLKISRVEAEDVGVYYCSQNTHVPPTFGQGTKVEIERTVAAPSVFIFPPSDEQLKSGTASVVCLLNNFYPREAKVQWKVDNALQSGNSQESVTEQDSKDSTYSLSSTLTLSKADYEKHKVYACEVTHQGLSSPVTKSFNRGEC |
| 100 % of GpH7-A5/GpH7-B3/GpL16-k0 (=100) | GpH7-A5/GpH7-B3 variant T335_12R/GpL16-k0 (antibody, human IgG1, kappa, also called He Ab) heavy 1: not shown heavy 2: not shown light: DIVMTQSPLSLPVTPGEPASISCQASESLVHSNRNTYLHWYLQKPGQSPQLLIYKVSNRFSGVPDRFSGSGSGTDFTLKISRVEAEDVGVYYCSQNTHVPPTFGQGTKVEIERTVAAPSVFIFPPSDEQLKSGTASVVCLLNNFYPREAKVQWKVDNALQSGNSQESVTEQDSKDSTYSLSSTLTLSKADYEKHKVYACEVTHQGLSSPVTKSFNRGEC |
| 106 % of GpH7-A5/GpH7-B3/GpL16-k0 (=100) | GpH7-A5/GpH7-B3 variant S337_19Q/GpL16-k0 (antibody, human IgG1, kappa, also called He Ab) heavy 1: not shown heavy 2: not shown light: DIVMTQSPLSLPVTPGEPASISCQASESLVHSNRNTYLHWYLQKPGQSPQLLIYKVSNRFSGVPDRFSGSGSGTDFTLKISRVEAEDVGVYYCSQNTHVPPTFGQGTKVEIERTVAAPSVFIFPPSDEQLKSGTASVVCLLNNFYPREAKVQWKVDNALQSGNSQESVTEQDSKDSTYSLSSTLTLSKADYEKHKVYACEVTHQGLSSPVTKSFNRGEC |
| 111 % of GpH7-A5/GpH7-B3/GpL16-k0 (=100) | GpH7-A5/GpH7-B3 variant T335_10E/GpL16-k0 (antibody, human IgG1, kappa, also called He Ab) heavy 1: not shown heavy 2: not shown light: DIVMTQSPLSLPVTPGEPASISCQASESLVHSNRNTYLHWYLQKPGQSPQLLIYKVSNRFSGVPDRFSGSGSGTDFTLKISRVEAEDVGVYYCSQNTHVPPTFGQGTKVEIERTVAAPSVFIFPPSDEQLKSGTASVVCLLNNFYPREAKVQWKVDNALQSGNSQESVTEQDSKDSTYSLSSTLTLSKADYEKHKVYACEVTHQGLSSPVTKSFNRGEC |
| 109 % of GpH7-A5/GpH7-B3/GpL16-k0 (=100) | GpH7-A5/GpH7-B3 variant Y296_04F/GpL16-k0 (antibody, human IgG1, kappa, also called He Ab) heavy 1: not shown heavy 2: not shown light: DIVMTQSPLSLPVTPGEPASISCQASESLVHSNRNTYLHWYLQKPGQSPQLLIYKVSNRFSGVPDRFSGSGSGTDFTLKISRVEAEDVGVYYCSQNTHVPPTFGQGTKVEIERTVAAPSVFIFPPSDEQLKSGTASVVCLLNNFYPREAKVQWKVDNALQSGNSQESVTEQDSKDSTYSLSSTLTLSKADYEKHKVYACEVTHQGLSSPVTKSFNRGEC |
| 101 % of GpH7-A5/GpH7-B3/GpL16-k0 (=100) | GpH7-A5/GpH7-B3 variant Y296_06M/GpL16-k0 (antibody, human IgG1, kappa, also called He Ab) heavy 1: not shown heavy 2: not shown light: DIVMTQSPLSLPVTPGEPASISCQASESLVHSNRNTYLHWYLQKPGQSPQLLIYKVSNRFSGVPDRFSGSGSGTDFTLKISRVEAEDVGVYYCSQNTHVPPTFGQGTKVEIERTVAAPSVFIFPPSDEQLKSGTASVVCLLNNFYPREAKVQWKVDNALQSGNSQESVTEQDSKDSTYSLSSTLTLSKADYEKHKVYACEVTHQGLSSPVTKSFNRGEC |
